Experimental data as given in patent US20260183408A1, “POLYPEPTIDE AND USE THEREOF” (SHENZHEN CHENYANG BIOLOGICAL TECHNOLOGY CO., LTD, priority 2022, published 2026).
Ends that are not written are not given here.

Molecular target: T1, 5-HT2CR (Mus musculus, UniProt P34968)
T1 construct: The dissolved mouse hippocampal tissue extract (with 500 μg protein); from tissue; host or cells: mouse hippocampus
T1 sequence (P34968 33-459): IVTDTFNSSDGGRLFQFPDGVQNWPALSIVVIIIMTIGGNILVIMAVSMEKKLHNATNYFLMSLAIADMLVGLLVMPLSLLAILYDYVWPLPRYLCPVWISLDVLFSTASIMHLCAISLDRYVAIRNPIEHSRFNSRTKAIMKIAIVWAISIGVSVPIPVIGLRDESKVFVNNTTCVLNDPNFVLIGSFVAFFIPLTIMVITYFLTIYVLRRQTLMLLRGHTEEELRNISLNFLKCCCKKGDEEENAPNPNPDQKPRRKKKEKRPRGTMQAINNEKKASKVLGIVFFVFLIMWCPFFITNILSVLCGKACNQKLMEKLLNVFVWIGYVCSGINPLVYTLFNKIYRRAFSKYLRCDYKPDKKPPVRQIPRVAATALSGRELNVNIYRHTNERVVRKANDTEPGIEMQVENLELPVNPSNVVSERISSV
Test: GST pulldown assay for mouse hippocampal tissue with D2R fragments
Format: binding
Conditions: GST fusion protein of the D2R region, mouse hippocampal tissue extract, Western blotting (FIG. 4)
Text: In order to identify the binding site of the D2R/5-HT2CR complex, full-length D2R cDNA clone (Genbank Accession No. X51645) was first amplified to obtain the cDNA fragments of the CT region of D2R (D2R-CT, T428-C443) and the third intracellular loop (IL3) region of D2R (D2R-IL3, K211-Q373). These fragments were subcloned into the BamH1/EcoR1 or BamH1/Xho1 site of pGEX-4T-3 plasmids (YouBio no: VT1255). The initiation methionine residue and the termination codon were incorporated when appropriate. All constructs were resequenced to confirm that the splicing fusion was properly achieved. E. coli BL21 viable cells (KangTi Life Technology, no: KTSM104L) were used for expression, and purification was performed to obtain the GST fusion protein containing the IL3 region of D2R (GST-D2R-IL3) and the GST fusion protein containing the CT region of D2R (GST-D2R-CT) from the bacterial lysates.
The dissolved mouse hippocampal tissue extract (with 500 μg protein) was diluted with 1×PBS/1% Triton X-100 and subsequently incubated with 20 μl of protein-GST-resin saturated with only GST protein or 15 μg of the GST fusion protein described above overnight at 4° C. Beads were washed with 1×PBS/1% Triton X-100 for 1-8 times. The bound proteins were eluted with SDS-PAGE Protein Loading Buffer (YeSen, no: 20315ES05), separated with SDS-PAGE, and subjected to Western blotting with their respective antibodies. Results were as shown in panel A of FIG. 4.
According to the method in this Example, pulldown analysis was performed using the GST fusion protein containing the KVC region of D2R (GST-D2R-KVC), the GST fusion protein containing the ES region of D2R (GST-D2R-ES), and the GST fusion protein containing the PQ region of D2R (GST-D2R-PQ), and the Western blotting results were shown in panel B of FIG. 4. […]

Molecule	pull down of 5-HT2CR
KL polypeptide: K226-L240 region of D2R, SEQ ID NO: 1; tested in the pulldown as GST fusion protein GST-D2R-KL (KRSSRAFRAHLRAPL)	could associate with 5-HT2CR
KVC region of D2R: GST fusion protein containing the KVC (K211-V270) region of D2R (KIYIVLRRRRKRVNTKRSSRAFRAHLRAPLKGNCTHPEDMKLCTVIMKSNGSFPVNRRRV; cysteine pairing not given here; also: GST fusion protein)	could pull down the 5-HT2CR
IL3 region of D2R: GST fusion protein containing the third intracellular loop (IL3) region of D2R, K211-Q373 (protein, left off: a dimerising Fc or GST; large carriers; small tags and cut ends, GST fusion protein containing the third intracellular loop (IL3) region of D2R, K211-Q373) KIYIVLRRRRKRVNTKRSSRAFRAHLRAPLKGNCTHPEDMKLCTVIMKSNGSFPVNRRRVEAARRAQELEMEMLSSTSPPERTRYSPIPPSHHQLTLPDPSHHGLHSTPDSPAKPEKNGHAKDHPKIAKIFEIQTMPNGKTRTSLKTMSRRKLSQQKEKKATQ	could pull down the 5-HT2CR
